The source of these data is article PMC7655957.

In experiment [1] the target is HOOK1 (Homo sapiens) (UniProt Q9UJC3). As to conditions: cited from earlier work.
Experiment [2] concerns the target HOOK3 (Homo sapiens) (UniProt Q86VS8). Conditions: cited from earlier work.
In experiment [3] the target is WT_(ZIP+)/WT_(ZIP−), BICD2_(1–98) heterodimer with C-terminal ZIP+/ZIP− leucine zipper (mouse (cDNA, methods); called human in the results and in the legend of Fig. 1) (UniProt Q921C5). Description: ITC; LIC1_(433–458) peptide titrated into ZIP+/ZIP− BICD2 heterodimers in the cell; 20 mM HEPES (pH 7.5), 100 mM NaCl, 0.5 mM TCEP; temperature given in the figure. For orientation: ITC needs no label: the signal is the heat of the interaction.

Experiment [4] concerns the target Y46D_(ZIP+)/WT_(ZIP−), half-functional BICD2_(1–98) heterodimer with C-terminal ZIP+/ZIP− leucine zipper (mouse (cDNA, methods); called human in the results and in the legend of Fig. 1) (UniProt Q921C5). The experiment is described as above.

LIC1_(433–458), amphipathic helix of the dynein light intermediate chain-1, sequence (Q9Y6G9 433-458): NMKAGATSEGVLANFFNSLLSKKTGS
LIC1, sequence (Q9Y6G9 whole entry): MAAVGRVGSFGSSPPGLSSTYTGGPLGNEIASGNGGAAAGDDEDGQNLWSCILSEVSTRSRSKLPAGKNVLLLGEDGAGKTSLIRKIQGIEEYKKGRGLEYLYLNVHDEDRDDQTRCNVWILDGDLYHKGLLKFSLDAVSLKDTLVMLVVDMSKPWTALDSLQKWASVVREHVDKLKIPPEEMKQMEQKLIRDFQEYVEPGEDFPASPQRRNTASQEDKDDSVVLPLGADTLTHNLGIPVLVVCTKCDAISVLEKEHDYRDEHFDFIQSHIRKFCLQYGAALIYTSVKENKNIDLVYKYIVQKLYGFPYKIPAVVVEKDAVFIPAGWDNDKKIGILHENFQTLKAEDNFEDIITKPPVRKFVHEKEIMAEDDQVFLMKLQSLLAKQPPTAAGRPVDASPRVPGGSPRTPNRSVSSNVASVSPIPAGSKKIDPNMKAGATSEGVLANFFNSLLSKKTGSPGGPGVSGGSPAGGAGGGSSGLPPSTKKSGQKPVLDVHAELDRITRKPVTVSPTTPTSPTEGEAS
HOOK3 (Homo sapiens), sequence (Q86VS8 whole entry): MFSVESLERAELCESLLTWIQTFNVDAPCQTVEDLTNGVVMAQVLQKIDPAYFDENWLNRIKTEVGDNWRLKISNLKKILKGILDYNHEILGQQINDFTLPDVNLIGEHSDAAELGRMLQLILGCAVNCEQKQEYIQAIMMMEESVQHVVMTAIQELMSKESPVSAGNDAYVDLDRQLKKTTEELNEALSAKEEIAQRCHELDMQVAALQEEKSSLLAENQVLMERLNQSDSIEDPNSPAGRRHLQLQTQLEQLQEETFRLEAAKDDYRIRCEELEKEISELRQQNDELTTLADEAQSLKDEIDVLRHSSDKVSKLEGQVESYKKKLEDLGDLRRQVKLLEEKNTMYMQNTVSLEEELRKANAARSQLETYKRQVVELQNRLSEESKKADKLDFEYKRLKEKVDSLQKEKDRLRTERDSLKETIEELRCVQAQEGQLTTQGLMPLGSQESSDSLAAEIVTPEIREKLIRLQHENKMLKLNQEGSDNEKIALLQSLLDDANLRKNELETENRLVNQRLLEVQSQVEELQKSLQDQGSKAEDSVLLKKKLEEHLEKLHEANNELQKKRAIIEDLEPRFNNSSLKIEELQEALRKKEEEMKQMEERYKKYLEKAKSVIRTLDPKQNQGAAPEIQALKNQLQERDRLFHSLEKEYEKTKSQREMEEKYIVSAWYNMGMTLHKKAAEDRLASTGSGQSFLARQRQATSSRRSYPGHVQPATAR
HOOK1 (Homo sapiens), sequence (Q9UJC3 whole entry): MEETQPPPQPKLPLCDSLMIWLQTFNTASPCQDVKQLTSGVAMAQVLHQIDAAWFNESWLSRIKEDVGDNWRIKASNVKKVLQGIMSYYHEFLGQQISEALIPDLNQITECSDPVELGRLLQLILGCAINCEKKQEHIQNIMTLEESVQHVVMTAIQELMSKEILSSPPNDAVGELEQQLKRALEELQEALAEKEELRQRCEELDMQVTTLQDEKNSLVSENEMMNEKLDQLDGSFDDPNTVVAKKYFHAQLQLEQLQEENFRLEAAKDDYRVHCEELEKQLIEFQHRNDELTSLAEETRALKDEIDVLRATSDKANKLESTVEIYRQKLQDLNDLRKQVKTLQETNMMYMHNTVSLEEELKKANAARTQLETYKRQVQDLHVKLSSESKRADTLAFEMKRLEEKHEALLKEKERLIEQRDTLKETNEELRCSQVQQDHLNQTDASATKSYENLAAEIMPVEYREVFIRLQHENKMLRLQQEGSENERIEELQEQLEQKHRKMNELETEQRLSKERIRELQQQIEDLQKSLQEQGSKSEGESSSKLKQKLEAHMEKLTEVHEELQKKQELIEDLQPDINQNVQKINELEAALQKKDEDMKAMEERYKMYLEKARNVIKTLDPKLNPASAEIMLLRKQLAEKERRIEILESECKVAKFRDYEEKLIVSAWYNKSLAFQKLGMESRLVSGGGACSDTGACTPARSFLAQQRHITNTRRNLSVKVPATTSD

Regarding LIC1 (from UniProt Q9Y6G9), the Kd in experiment [1] was 15.7 µM; in experiment [2] it was 6.3 µM.
For the substance “LIC1_(433–458), amphipathic helix of the dynein light intermediate chain-1 (from UniProt Q9Y6G9 433-458) (peptide)”, the Kd in experiment [3] is 6.8 µM; in experiment [4], 6.2 µM. Moreover, the stoichiometry N in experiment [3] is 2; in experiment [4], 1.1.

Usually Kd stands for the concentration at which binding is half-saturated. Broadly, the stoichiometry N is a count of units in the complex or per binding partner.
